Patent US20260139049A1 (published 2026)
Where a chain is given by its changes, count along the chain named.

T1: monkey CLDN6 (Cyno CLDN6) (monkey (Cyno))
T1 chain: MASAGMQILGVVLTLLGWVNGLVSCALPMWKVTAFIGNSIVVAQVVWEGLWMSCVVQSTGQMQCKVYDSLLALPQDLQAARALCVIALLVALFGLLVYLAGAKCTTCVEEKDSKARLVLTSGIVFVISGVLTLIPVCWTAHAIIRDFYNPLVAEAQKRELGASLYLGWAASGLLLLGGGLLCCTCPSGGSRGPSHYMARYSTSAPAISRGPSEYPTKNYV

T2: mouse CLDN6 (mouse, UniProt Q9Z262 1-219)
T2 chain: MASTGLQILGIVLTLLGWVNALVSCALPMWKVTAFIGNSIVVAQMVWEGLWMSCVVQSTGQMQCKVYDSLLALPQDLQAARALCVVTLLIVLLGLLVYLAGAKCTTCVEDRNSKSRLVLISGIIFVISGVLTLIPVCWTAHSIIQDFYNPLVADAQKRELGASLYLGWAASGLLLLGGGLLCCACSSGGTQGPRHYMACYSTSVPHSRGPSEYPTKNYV

T3: human CLDN6 (human, UniProt P56747 1-220)
T3 chain: T1 chain with R191Q

B1: PiH2006 (antibody, V domains shown)
VH: QVQLVQSGAEVKKPGASVKVSCKASGYTFTDYNMHWVRQAPGQRLEWIGYINPNNGATNYNQKFKGRVTITVDTSASTAYMELSSLRSEDTAVYNCARWDGYVYYYGMDYWGQGTLVTVSS
VL: DIQMTQSPSSLSASVGGRVTITCKASDHINNWLAWYQQKPGKAPKLLISGATSLETGVPSRFSGSGSGTDYTFTISSLQPEDIATYYCQQYWNTPYTFGGGTKLEIKR
B2: IMAB027 (antibody, V domains shown)
VH: EVQLQQSGPELVKPGASMKISCKASGYSFTGYTMNWVKQSHGKNLEWIGLINPYNGGTIYNQKFKGKATLTVDKSSSTAYMELLSLTSEDSAVYYCARDYGFVLDYWGQGTTLTVSS
VL: IVLTQSPAIMSASPGEKVTITCSASSSVSYLHWFQQKPGTSPKLWVYSTSNLPSGVPARFGGSGSGTSYSLTISRMEAEDAATYYCQQRSIYPPWTFGGGTKLEIKR
B3: 51C10H4 (antibody, V domains shown)
VH: EVQLQQSGPELVKPGASVKMSCKASGYTFTDYNMHWVKKSHGKSLEWIGYVNPNNGATSYNQKFKGKATLTVNKSSSTAYMELRSLTSEDSAVYNCARWDGYVYYYGLDYWGQGTSVTVSS
VL: DIQMTQSSSYLSVSLGGRVTITCKASDHINNWLAWYQQKPGNAPRLLISGATSLETGVPSRFSGSGSGKDYTLSITSLQTEDVATYYCQQYWSTPYTFGGGTKLEIKR
B4: 54B5A7 (antibody, V domains shown)
VH: B3 VH with V51I, S59N, L108M
VL: B3 VL with S93N
B5: PiH1004 (antibody, V domains shown)
VH: B1 VH with R44S, I51V, N59S, V68A, I70M, T74K, A76T, A79V, M108L
VL: B1 VL with G17D, A43V, F73L, I83V, N93S
B6: PiH1008 (antibody, V domains shown)
VH: B1 VH with R44S, I51V, N59S, V68A, I70M, T74K, A76T, A79V, M108L
VL: B1 VL with A43V, K45R, F73L, I83V, N93S
B7: PiH1006 (antibody, V domains shown)
VH: B1 VH with R44G, I51V, N59S, I70M, A76T, A79V, M108L
VL: B1 VL with A43V, K45R, F73L, I83V, N93S
B8: RecA101 (antibody, V domains shown)
VH: B3 VH
VL: B3 VL with S93N

Target: T1, monkey CLDN6 (Cyno CLDN6)
Experiment: FACS

EC50 [µg/mL]	Binder
1.33	B1
0.0916	B2

Target: T2, mouse CLDN6
Experiment: FACS

EC50 [µg/mL]	Binder
0.608	B3
0.844	B4
52.3	B1
8.57	B5
6.42	B6
18.4	B7

Target: T1, monkey CLDN6 (Cyno CLDN6)
Experiment: FACS
Remark: another data set of the same source

EC50 [µg/mL]	Binder
0.636	B3
0.844	B5
0.97	B6
1.28	B7
0.0916	B2

Target: T3, human CLDN6
Experiment: FACS; HepG2 cells

EC50 [µg/mL]	Binder
0.521	B8

Target: T3, human CLDN6
Experiment: FACS; HepG2 cells, FIG. 24

EC50 [µg/mL]	Binder
0.537	B2
